Target: T1, NaPi2b expressed on HCC-78 cells (Homo sapiens, UniProt O95436)
T1 construct: endogenous in cells; host or cells: HCC-78
T1 sequence (O95436 1-690): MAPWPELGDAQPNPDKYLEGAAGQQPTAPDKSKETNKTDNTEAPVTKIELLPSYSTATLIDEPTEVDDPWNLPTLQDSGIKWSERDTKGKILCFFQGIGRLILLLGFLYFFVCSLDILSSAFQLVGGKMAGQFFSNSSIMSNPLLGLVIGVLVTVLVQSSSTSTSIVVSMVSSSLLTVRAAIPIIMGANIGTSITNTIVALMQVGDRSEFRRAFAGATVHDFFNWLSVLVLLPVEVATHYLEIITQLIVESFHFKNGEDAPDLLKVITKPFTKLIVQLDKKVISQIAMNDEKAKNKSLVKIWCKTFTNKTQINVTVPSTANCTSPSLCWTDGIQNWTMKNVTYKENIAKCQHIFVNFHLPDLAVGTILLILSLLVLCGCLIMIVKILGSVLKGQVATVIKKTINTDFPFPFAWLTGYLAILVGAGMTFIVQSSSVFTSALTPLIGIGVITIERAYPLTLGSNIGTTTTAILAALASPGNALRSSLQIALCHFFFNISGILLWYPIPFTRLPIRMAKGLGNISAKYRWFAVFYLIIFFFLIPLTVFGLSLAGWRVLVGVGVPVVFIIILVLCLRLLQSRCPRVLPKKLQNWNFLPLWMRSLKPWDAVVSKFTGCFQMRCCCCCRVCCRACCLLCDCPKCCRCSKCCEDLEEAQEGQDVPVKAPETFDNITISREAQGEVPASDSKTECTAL
Assay: Cellular binding of antibody and ADCs to HCC-78 cells by flow cytometry (Example 14)
Method: Briefly, HEK293-6e cells were transfected for ˜24 hours to transiently express human NaPi2b, cynomolgus or mouse NaPi2b, at 1 μg of DNA per 1 million cells. Following transfection, 50,000 cells per well were seeded in V-bottom 96-well plates and incubated with 200 nM of primary antibody for 18-24 hours at 4° C. to prevent internalization. Post-incubation, cells were washed and stained with anti-Human IgG Fc AF647 conjugate (Jackson Immuno Research Labs, West Grove, PA, Cat. No. 109-605-098, Lot. No. 124868) at 4° C. for 1 hour. Following staining and washing, fluorescence was detected by flow cytometry on BD LSRFortessa™ Cell Analyzer (BD Biosciences, Franklin Lake, NJ) with 10,000 minimum events collected per well. The AF647/APC-A GeoMean (fluorescence signal geometric mean, proportional to anti-Human AF647 binding) was calculated for the live singlet cell population for each primary antibody using FlowJo™ v8 software (BD Biosciences, Franklin Lake, NJ). The Bmax and Kd of each primary antibody were calculated using GraphPad Prism Version 9 (GraphPad Software, San Diego, CA)
The ability of ADCs to bind to cells expressing NaPi2b was assessed. ADCs of a representative humanized variant antibody, v29456 (H1L2), were prepared by conjugation to DL2 and DL1 as described in Example 11. Binding to endogenous high NaPi2b-expressing cell lines IGROV-1 and HCC-78 was assessed by flow cytometry according to methods described in Example 5.

B1: v29456: humanized anti-NaPi2b IgG1/kappa antibody H1L2; VH SEQ ID NO:24, VL SEQ ID NO:29 (antibody, V domains shown)
VH: QVQLVQSGAEVKKPGASVKVSCKASGFTFTSYNVHWVRQAPGQGLEWMGAISPGNGDLSYAQKFQGRVTMTRDTSTSTVYMELSSLRSEDTAVYYCARGRTGMGAVDYWGQGTLVTVSS
VL: DVQMTQSPSSLSASVGDRVTITCRASQDVYSYLNWYQQKPGKAVKLLIYYTSRLQSGVPSRFSGSGSGTDYTLTISSLQPEDFATYYCQQYNIFPWTFGQGTKLEIK
modifications: v29452, v29456, v29460 VH (H1); v29453, v29454, v29455, v29456 VL (L2)
  Bmax: 21,785
  Curve Hill Slope (h): 1.2
Apparent Kd
  Kd: 2.27 nM

From patent publication US20250277030A1, “ANTI-NAPI2B ANTIBODIES AND METHODS OF USE” (Zymeworks BC Inc., priority 2022, published 2025)
